{"source": "patent US20260021190A1", "key": {"[1]": {"target": "human insulin receptor type B (IR(B)) (human) (UniProt P06213)", "sequence (P06213 28-1382)": "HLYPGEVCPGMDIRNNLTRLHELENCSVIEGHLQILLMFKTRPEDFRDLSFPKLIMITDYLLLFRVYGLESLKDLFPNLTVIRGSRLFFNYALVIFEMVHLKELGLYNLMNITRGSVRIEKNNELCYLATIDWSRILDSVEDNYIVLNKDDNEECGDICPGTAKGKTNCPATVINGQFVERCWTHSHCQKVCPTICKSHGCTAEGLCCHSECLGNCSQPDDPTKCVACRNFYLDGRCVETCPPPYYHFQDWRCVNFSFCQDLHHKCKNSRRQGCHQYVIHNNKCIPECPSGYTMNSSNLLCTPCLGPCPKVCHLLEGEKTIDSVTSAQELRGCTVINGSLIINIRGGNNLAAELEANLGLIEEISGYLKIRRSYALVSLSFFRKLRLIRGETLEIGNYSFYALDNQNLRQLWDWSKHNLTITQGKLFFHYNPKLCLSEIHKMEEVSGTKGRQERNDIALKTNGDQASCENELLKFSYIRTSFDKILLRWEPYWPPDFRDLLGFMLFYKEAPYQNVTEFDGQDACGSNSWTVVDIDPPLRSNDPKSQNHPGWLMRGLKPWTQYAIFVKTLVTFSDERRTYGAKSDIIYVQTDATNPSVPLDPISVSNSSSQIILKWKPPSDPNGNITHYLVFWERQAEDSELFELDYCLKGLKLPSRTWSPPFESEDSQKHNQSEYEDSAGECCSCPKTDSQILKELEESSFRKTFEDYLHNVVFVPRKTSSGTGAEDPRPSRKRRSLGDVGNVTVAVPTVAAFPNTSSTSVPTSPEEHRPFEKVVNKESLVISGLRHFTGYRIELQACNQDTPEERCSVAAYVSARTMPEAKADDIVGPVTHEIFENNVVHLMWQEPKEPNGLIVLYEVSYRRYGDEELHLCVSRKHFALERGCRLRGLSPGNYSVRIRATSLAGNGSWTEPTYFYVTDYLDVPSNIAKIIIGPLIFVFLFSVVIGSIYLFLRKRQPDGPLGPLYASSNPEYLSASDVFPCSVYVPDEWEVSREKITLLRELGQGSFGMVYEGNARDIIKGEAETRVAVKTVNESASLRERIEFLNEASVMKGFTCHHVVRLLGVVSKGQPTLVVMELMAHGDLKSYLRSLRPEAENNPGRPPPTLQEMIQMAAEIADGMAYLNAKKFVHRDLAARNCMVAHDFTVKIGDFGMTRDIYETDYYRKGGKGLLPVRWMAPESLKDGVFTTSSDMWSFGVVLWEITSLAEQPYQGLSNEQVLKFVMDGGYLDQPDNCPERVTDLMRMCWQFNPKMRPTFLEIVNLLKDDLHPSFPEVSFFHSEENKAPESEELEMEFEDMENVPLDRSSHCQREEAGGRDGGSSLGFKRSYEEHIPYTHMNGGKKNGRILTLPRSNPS", "assay": "cell-based or functional assay"}, "[2]": {"target": "T1, Human macrophage mannose receptor 1 (MRC1) (human) (UniProt P22897)", "T1 sequence (looked up)": "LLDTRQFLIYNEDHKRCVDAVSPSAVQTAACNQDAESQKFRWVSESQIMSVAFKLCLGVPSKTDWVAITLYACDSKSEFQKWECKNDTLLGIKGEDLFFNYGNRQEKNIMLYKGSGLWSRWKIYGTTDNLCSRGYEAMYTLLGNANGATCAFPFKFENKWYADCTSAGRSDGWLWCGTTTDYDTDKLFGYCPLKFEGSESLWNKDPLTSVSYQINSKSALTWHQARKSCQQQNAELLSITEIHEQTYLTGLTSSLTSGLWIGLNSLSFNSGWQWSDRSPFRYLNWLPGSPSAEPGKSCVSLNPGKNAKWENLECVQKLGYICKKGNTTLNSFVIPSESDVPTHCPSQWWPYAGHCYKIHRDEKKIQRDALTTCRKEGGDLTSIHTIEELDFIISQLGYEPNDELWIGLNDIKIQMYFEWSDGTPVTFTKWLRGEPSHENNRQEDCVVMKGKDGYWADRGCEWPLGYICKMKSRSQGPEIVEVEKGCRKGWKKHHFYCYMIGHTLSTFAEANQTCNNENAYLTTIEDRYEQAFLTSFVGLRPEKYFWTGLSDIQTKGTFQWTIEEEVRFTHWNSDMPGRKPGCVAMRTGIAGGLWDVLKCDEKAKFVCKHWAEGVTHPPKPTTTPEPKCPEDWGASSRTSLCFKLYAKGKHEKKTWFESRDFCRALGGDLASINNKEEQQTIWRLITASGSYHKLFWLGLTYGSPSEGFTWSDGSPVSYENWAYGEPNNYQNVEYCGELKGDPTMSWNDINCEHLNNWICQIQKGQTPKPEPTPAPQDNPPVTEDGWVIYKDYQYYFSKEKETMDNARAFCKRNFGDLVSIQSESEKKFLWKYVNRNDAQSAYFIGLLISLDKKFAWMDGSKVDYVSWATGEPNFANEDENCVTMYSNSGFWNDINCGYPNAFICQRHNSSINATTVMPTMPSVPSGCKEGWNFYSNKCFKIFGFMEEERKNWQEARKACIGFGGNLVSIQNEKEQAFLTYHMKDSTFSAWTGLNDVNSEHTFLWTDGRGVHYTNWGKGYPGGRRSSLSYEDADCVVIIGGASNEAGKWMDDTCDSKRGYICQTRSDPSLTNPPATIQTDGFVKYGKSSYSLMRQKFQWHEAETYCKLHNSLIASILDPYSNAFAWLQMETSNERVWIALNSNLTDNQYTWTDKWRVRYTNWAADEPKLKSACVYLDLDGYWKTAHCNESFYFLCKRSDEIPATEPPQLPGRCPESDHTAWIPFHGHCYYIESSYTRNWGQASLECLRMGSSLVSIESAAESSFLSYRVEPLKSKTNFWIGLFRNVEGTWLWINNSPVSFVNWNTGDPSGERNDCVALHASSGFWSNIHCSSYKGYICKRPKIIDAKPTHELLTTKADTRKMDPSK", "assay": "competition with Eu-mannosylated-BSA on captured human MRC1, DELFIA"}}}
{"substance": "IOC-34 (Lispro) (ligand)", "values": [{"measurement": "Human pIR IC50 (nM)", "setting": "[1]", "value": 6.36, "unit": "nM"}, {"measurement": "IC50", "setting": "[2]", "value": 82.7, "unit": "nM"}]}
